Where a chain is given by its changes, count along the chain named. “And” between values parts separate entries of the source, which are not always exact repeats. Equal entries are not always repeated.
T1: mouse MAdCAM (mouse, UniProt Q61826 22-365, limits assumed)
T1 construct: also called mouse MAdCAM-1; muMAdCAM
T1 sequence (looked up): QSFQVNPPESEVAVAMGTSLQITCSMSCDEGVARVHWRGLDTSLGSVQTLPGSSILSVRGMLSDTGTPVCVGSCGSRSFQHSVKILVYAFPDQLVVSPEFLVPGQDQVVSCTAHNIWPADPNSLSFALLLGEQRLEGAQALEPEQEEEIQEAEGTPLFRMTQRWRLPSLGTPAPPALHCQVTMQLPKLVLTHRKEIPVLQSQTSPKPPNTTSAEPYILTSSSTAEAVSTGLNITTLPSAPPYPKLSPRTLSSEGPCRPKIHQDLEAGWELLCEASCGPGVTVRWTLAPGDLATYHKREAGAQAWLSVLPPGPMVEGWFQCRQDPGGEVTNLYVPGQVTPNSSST

T2: human MAdCAM (human, UniProt Q13477 19-317, limits assumed)
T2 construct: also called huMAdCAM; human MAdCAM-1
T2 sequence (looked up): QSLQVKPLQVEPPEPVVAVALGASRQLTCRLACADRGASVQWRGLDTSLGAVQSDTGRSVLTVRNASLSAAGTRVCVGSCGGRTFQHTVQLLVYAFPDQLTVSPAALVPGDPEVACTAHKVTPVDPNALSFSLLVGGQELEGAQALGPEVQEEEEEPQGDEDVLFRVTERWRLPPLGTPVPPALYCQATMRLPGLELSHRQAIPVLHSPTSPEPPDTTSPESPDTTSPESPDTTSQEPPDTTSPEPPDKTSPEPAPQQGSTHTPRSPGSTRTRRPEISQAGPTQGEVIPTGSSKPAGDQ

B1: MIAB1 (antibody, V domains shown)
VH: EVQLLESGGGLVQPGGSLRLSCAASGFTFDDYAMHWVRQAPGKGLEWVASITSSSAFIDYADSVKGRFTISRDNSKNTLYLQMNSLRAEDTAVYYCAREPVDWNSYFDLWGQGTLVTVSS
VL: EIVMTQSPATLSVSPGERATLSCRASQGISNSYLAWYQQKPGQAPRLLIYGASTRATGIPARFSGSGSGTEFTLTISSLQSEDFAVYYCQQYYTYPPTFGQGTKVEIK
notes: tested with human Fc
B2: MIAB2 (antibody, V domains shown)
VH: B1 VH with P100R
VL: B1 VL
notes: tested with human Fc
B3: MIAB208 (antibody, V domains shown)
VH: B1 VH with P100R
VL: EIVMTQSPATLSVSPGERATLSCRASQSVYSNLAWYQQKPGQAPRLLIYDASTRATGIPARFSGSGSGTEFTLTISSLQSEDFAVYYCQQYHIWPPTFGQGTKVEIK
notes: tested with human Fc
B4: MIAB25 (antibody, V domains shown)
VH: B1 VH with T28I, P100R, N104F
VL: B3 VL with Y30S, S31N, A34V, H92S, I93H
notes: tested with human Fc
B5: MIAB121 (antibody, V domains shown)
VH: B1 VH with T28I, P100R, N104F
VL: B3 VL with S26C, Q27P, Y30S, S31N, A34V, H92S, I93H
notes: tested with human Fc
B6: MIAB205 (antibody, V domains shown)
VH: B1 VH with P100R, N104F
VL: B3 VL with D50R
notes: tested with human Fc
B7: MIAB13 (antibody, V domains shown)
VH: B1 VH with P100R, D102L
VL: B3 VL with S28N, Y30N, S31N, S52T, H92Y, I93H, P96Q
notes: tested with human Fc
B8: MIAB209 (antibody, V domains shown)
VH: B1 VH with P100R
VL: B1 VL with G28S, I29V, S30Y, N31S, S32N, G51R, Y93S, T94H, Y95W
notes: tested with human Fc
B9: MIAB122 (antibody, V domains shown)
VH: B1 VH with T28I, P100R, N104F
VL: B1 VL with S26C, Q27P, G28S, I29V, S32N, A35V, G51D, Y93S, T94H, Y95W
notes: tested with human Fc
B10: MIAB207 (antibody, V domains shown)
VH: B1 VH with P100R
VL: B3 VL with A34V, D50R
notes: tested with human Fc
B11: MIAB26 (antibody, V domains shown)
VH: B1 VH with P100R
VL: B3 VL with D50R
notes: tested with human Fc
B12: MIAB123 (antibody, V domains shown)
VH: B1 VH with T28I, P100R, N104F
VL: B1 VL with G28S, I29V, S32N, A35V, G51D, Y93S, T94H, Y95W
notes: tested with human Fc
B13: MIAB12 (antibody, V domains shown)
VH: B1 VH with P100R
VL: B1 VL with S26C, Q27P
notes: tested with human Fc
B14: MIAB206 (antibody, V domains shown)
VH: B1 VH with P100R, N104Y
VL: B3 VL with D50R
notes: tested with human Fc
B15: MIAB169 (antibody, V domains shown)
VH: EVQLLESGGGLVQPGGSLRLSCAASGFTFSDFWMHWVRQAPGKGLEWISYISGDSGYTNYADSVKGRFTISRDNSKNTLYLQMNSLRAEDTAVYYCARDRPYYYIMDVWGKGTTVTVSS
VL: DIQMTQSPSSLSASVGDRVTITCRASQSVSRSLAWYQQKPGKAPKLLIYAASSLQSGVPSRFSGSGSGTDFTLTISSLQPEDFATYYCQQYKSYPVTFGQGTKVEIK
notes: tested with human Fc; also called MIAB169-CHO; MIAB169-HEK
B16: MIAB124 (antibody, V domains shown)
VH: EVQLLESGGGLVQPGGSLRLSCAASGFTFSTDAMSWVRQAPGKGLEWSAISGSGGSTYSADSVKGRFTISRDNSKNTLYLQMNSLRAEDTAVYYCARARVDWNSYNDLWGQGTLVTVSS
VL: B3 VL with Y30N, S31N, N32K, D50A, H92S, I93T, P96I
notes: tested with human Fc
B17: MIAB125 (antibody, V domains shown)
VH: B16 VH with T31N, D32Y, M34I, A49D, S56T, S59Y, A98E, N106F
VL: B1 VL
notes: tested with human Fc
B18: PMAB18 (bispecific antibody, human IgG1, kappa)
heavy: QVQLVQSGAEVKKPGASVKVSCKASGYSFTTYYMHWVRQAPGQGLEWMGIIAPSGGSTSYAQKFQGRVTMTRDTSTSTVYMELSSLRSEDTAVYYCASGWVYWGQGTLVTVSSASTKGPSVFPLAPSSKSTSGGTAALGCLVKDYFPEPVTVSWNSGALTSGVHTFPAVLQSSGLYSLSSVVTVPSSSLGTQTYICNVNHKPSNTKVDKKVEPKSCDKTHTCPPCPAPEAAGAPSVFLFPPKPKDTLMISRTPEVTCVVVDVSHEDPEVKFNWYVDGVEVHNAKTKPREEQYNSTYRVVSVLTVLHQDWLNGKEYKCKVSNKALPAPIEKTISKAKGQPREPQVYTLPPSREEMTKNQVSLTCLVKGFYPSDIAVEWESNGQPENNYKTTPPVLDSDGSFFLYSKLTVDKSRWQQGNVFSCSVMHEALHNHYTQKSLSLSPGGGGGSGGGGSGGGGSEVQLLESGGGLVQPGGSLRLSCAASGFTFSSYWMHWVRQAPGKGLEWVSYISGSGGYTNYADSVKGRFTISRDNSKNTLYLQMNSLRAEDTAVYYCARDRPYYYDMDVWGKGTTVTVSSGGGGSGGGGSGGGGSGGGGSDIQMTQSPSSLSASVGDRVTITCRASQSISSSLAWYQQKPGKAPKLLIYAASSLQSGVPSRFSGSGSGTDFTLTISSLQPEDFATYYCQQYKSYPVTFGQGTKVEIK
light: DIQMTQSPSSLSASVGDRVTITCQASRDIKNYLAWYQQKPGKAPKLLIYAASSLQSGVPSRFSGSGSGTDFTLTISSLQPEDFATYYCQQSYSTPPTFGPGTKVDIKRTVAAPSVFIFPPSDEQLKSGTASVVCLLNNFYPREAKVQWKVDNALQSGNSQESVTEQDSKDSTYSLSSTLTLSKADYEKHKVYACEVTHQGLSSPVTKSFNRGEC
B19: PMAB57 (bispecific antibody, human IgG1, kappa)
heavy: B18 heavy with S488D, Y489F, V505I, S511D, G512S, D562Y, I625V, S627R
light: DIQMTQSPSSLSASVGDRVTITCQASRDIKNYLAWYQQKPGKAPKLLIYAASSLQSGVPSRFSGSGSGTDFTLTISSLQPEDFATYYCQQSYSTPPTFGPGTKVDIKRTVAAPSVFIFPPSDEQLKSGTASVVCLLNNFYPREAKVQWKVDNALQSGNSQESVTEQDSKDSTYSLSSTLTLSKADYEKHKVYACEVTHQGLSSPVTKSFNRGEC
B20: PMAB55 (bispecific antibody, human IgG1, kappa)
heavy: B18 heavy with Q1E, T31S, A52N, M563L
light: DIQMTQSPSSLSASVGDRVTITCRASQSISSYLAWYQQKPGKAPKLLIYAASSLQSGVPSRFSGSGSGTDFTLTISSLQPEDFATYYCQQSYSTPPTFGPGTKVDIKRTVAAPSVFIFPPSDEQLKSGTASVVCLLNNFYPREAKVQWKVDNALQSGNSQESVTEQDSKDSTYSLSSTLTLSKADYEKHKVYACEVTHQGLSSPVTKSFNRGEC
B21: PMAB54 (bispecific antibody, human IgG1, kappa)
heavy: B18 heavy with Q1E, T31S, A52N, M563I
light: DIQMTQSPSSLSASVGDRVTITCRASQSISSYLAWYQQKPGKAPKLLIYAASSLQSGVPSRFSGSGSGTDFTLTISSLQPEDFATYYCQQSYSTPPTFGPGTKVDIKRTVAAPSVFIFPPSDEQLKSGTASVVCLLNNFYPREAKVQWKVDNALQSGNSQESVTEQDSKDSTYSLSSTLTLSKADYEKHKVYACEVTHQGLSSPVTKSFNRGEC

Molecular target: T1, mouse MAdCAM
Assay: BLI (Octet), binder on anti-human Fc tips

Kd [nM]	Binder
184	B1
147	B2
75.1	B3
131	B4
117	B5
42.2	B6
6.6	B7
35.2	B8
130	B9
24	B10
9.9	B11
164	B12
77.5	B13
7.6	B14

Molecular target: T2, human MAdCAM
Assay: BLI (Octet), binder on anti-human Fc tips

Kd	fold lower affinity than parent PRNT1 [fold]	koff [s⁻¹]	kon [M⁻¹ s⁻¹]	Binder
38.4 nM				B1
23.2 nM				B2
20.2 nM				B3
46.9 nM				B4
50.4 nM				B5
56.3 nM				B6
45.9 nM				B7
61.1 nM				B8
48.2 nM				B9
83.5 nM				B10
49.1 nM				B11
39.7 nM				B12
19.3 nM				B13
74.3 nM				B14
266 nM and 340 nM	10	0.0738	278000	B15

Molecular target: T3, cyno MAdCAM (cynomolgus)
T3 construct: also called cynomolgus MAdCAM
Assay: BLI (Octet), binder on anti-human Fc tips

Kd [nM]	Binder
11.5	B16
26.5	B1
18.8	B2
142	B3
60.8	B4
0.9	B17
92	B5
117	B6
33.4	B7
99	B8
68.5	B9
73.7	B10
78.5	B11
77.9	B12
19.5	B13
89.5	B14
153	B15

Molecular target: T1, mouse MAdCAM
Assay: BLI (Octet)

Kd [nM]	koff [s⁻¹]	kon [M⁻¹ s⁻¹]	Binder
201	0.0776	386000	B18
205	0.0558	272000	B19
59.5	0.00131	22000	B20
248	0.00138	5570	B21

Molecular target: T2, human MAdCAM
Assay: BLI (Octet)

Kd [nM]	koff [s⁻¹]	kon [M⁻¹ s⁻¹]	response	Binder
198	0.0511	259000	0.184	B18
122	0.0389	320000	0.18	B19
47.6	0.00163	34300		B20
592	0.14	236000		B21

Molecular target: T3, cyno MAdCAM
Assay: BLI (Octet)

Kd [nM]	koff [s⁻¹]	kon [M⁻¹ s⁻¹]	response	Binder
22.6	0.0102	453000	0.145	B18
49.9	0.0153	306000	0.169	B19
44.3	0.00924	209000		B20
158	0.0114	71900		B21
